# Laboratory results taken from the RNAGym collection of RNA variant scans (doi:10.7554/elife.90254).
# B1: LINE1-mini (parent)
# chain: GGCAGAGCUCAACACAGCGUGGCAAAGUGGCUGUGGCUAGACUGCC
# Variants of: B1
# Assay: self-cleavage, relative activity (ratio to wild type); higher = more cleavage; in vitro, sequencing; the parent is a self-cleaving ribozyme
row,Variant,self-cleavage
1,GGCAGAGCUCAACACAGCAUGGCAAAGUGGGUGUGGCUAGACUGCC [G19A C31G],0.17
2,GGCAGAGCUCAACACCGCGUGGCAAAGUGGCUGUGGCUAGACCGCC [A16C U43C],0.08
3,GGAAGAGCUCAACACAGCGUGGGAAAGUGGCUGUGGCUAGACUGCC [C3A C23G],0.45
4,GGCAGAGCUCAACACAGCGUGGCCAAGUGGAUGUGGCUAGACUGCC [A24C C31A],0.06
5,AGCAGAGCUCAAGACAGCGUGGCAAAGUGGCUGUGGCUAGACUGCC [G1A C13G],0.1
6,GGCAGAGCUGAACACAGCUUGGCAAAGUGGCUGUGGCUAGACUGCC [C10G G19U],0.11
7,GGCAGAGCUCAACACAGCGUCGCAAAGUGGGUGUGGCUAGACUGCC [G21C C31G],0.09
8,GGCAGAACUCAACACAGCGUGGCGAAGUGGCUGUGGCUAGACUGCC [G7A A24G],0.16
9,GGCAGAGCUCAACACAGCGUGGCAAAGUGGCUGUGACUAGACUACC [G36A G44A],0.43
10,GGCAGAGCUCAACACAGCGUGGCAAAGUGGGUGUGGGUAGACUGCC [C31G C37G],0.04
11,GGCAGAGCUCAACACAGCGUGGCAAAGGGGCUGUGGCUAAACUGCC [U28G G40A],0.12
12,GGCAGAGCUCUACACAGCGUGGCAAGGUGGCUGUGGCUAGACUGCC [A11U A26G],0.13
13,GGAAGGGCUCAACACAGCGUGGCAAAGUGGCUGUGGCUAGACUGCC [C3A A6G],0.2
14,GGGAGAGCUCCACACAGCGUGGCAAAGUGGCUGUGGCUAGACUGCC [C3G A11C],0.04
15,GGCAGAGCUCAACACAGCGUGGCAAAGUGGGUGAGGCUAGACUGCC [C31G U34A],0.03
16,GGCAGCGCUCAACACAGCGUGGCAAAGUGGCUGUGGGUAGACUGCC [A6C C37G],0.03
17,GGCAGAGCUCAACACAGCGUGGCAAAGCGGCUGUGGCUAGUCUGCC [U28C A41U],0.45
18,GGCAGAGCUCAACACAGCGUGGCAAAGUGGCUAUGGCUAGGCUGCC [G33A A41G],0.11
19,GGCAGAGCUCAACACAGUGUGGAAAAGUGGCUGUGGCUAGACUGCC [C18U C23A],1.27

row,Variant,self-cleavage
1,GGCAGAGCUCAACACAGCGUGGCAAAGUGGCUGUGGCUGGACUCCC [A39G G44C],0.09
2,GGCAGAGCUCAACACACCGUGGCAAAGUGGCUGGGGCUAGACUGCC [G17C U34G],0.1
3,GGCAGCGCUCAACACAGCGUGGCAAAUUGGCUGUGGCUAGACUGCC [A6C G27U],0.56
4,GGCAGAGCUCAACACAUCGUGGCAAAUUGGCUGUGGCUAGACUGCC [G17U G27U],0.35
5,GGCAGAGCUCAACACAGCGUGGCAACGUGGCUGUGGCUAGACUGCG [A26C C46G],0.75
6,GGCAGAGCUCAACAAAGCGUGGCAAACUGGCUGUGGCUAGACUGCC [C15A G27C],0.1
7,GGCAGAGCUCAACACAGCGUGGCAAAGUGGCUGUGGCUAGAAUGAC [C42A C45A],0.09
8,GGCAGAGCUCAGCACAGCGUGGCAACGUGGCUGUGGCUAGACUGCC [A12G A26C],0.03
9,GGCAGAGCUCAACACAGCGUGGCAAAGUGGCUGUGGCUGGACCGCC [A39G U43C],0.04
10,CGCAGAGCUCAACACAGCGUGGCAAAGUGGCUGUGCCUAGACUGCC [G1C G36C],0.01
11,GGCAGAGCUCAACACAGCGUGGCAAGGAGGCUGUGGCUAGACUGCC [A26G U28A],1.25
12,GGCAGGGCUCAACACAGCGUGGCAAGGUGGCUGUGGCUAGACUGCC [A6G A26G],0.1
13,GGCAGAGCUCAACACAGCGUCGCAAAGUGGCUGUGGCUAGACAGCC [G21C U43A],0.07
14,GGCAGAGCUCAACACAGCGUCGCAAAGUGUCUGUGGCUAGACUGCC [G21C G30U],1.1
15,GGCAGAGCUCAACACAGCGUGGCAAAGUGGCUGCGGCUACACUGCC [U34C G40C],0.02
16,GGCAGAGCUCAACACAGCGUGGCAUAGUGGCUCUGGCUAGACUGCC [A25U G33C],0.04
17,GGCAGAGCUCAACACAGCGCGGCAAAGUGGCUGCGGCUAGACUGCC [U20C U34C],0.18
18,GGCAGAGCUCAACACAGCUUGGCAAAGUCGCUGUGGCUAGACUGCC [G19U G29C],0.64
19,GGCAGAGCUCAACACAGAGUGGCAAAGUGGCUGUGGCUAGGCUGCC [C18A A41G],0.13

row,Variant,self-cleavage
1,GGCAGAACUCAACACAGCGUGGCACAGUGGCUGUGGCUAGACUGCC [G7A A25C],0.14
2,GCCAGAGCUCAACACAGCGUGGCAAAGUGGCUGUGGUUAGACUGCC [G2C C37U],0.06
3,GGCAGAGCUCAUCACAGCGUGGCAAAGGGGCUGUGGCUAGACUGCC [A12U U28G],0.12
4,GGCAGAGCUCAACACAGCGUGGCGAAGUGGCUGCGGCUAGACUGCC [A24G U34C],0.1
5,GGCAGAGCUCAACACAGCGCGGUAAAGUGGCUGUGGCUAGACUGCC [U20C C23U],0.61
6,GGCAGAGCUCAACACAGCGUGGCAAAGUGACUGUGGCUAGAAUGCC [G30A C42A],0.14
7,GGCAGAGCUCAACACAGCGUGGUAAAGUGGCUUUGGCUAGACUGCC [C23U G33U],0.16
8,GGCAGAGCUCGACACAGCGUGGCAAUGUGGCUGUGGCUAGACUGCC [A11G A26U],0.02
9,GGCAGAGCUCAACACAGCGUGGCAAAGUGACUGUGGCUAGGCUGCC [G30A A41G],0.27
10,GGCAGAGCUCAACACAGCGUGGCAAAGUGGUUGUGGCUAGUCUGCC [C31U A41U],0.16
11,GGCGGAGCUCAACACAGCGUGGCAAAGUGACUGUGGCUAGACUGCC [A4G G30A],1.37
12,GGCAGUGCUCAACACAGCGUGGCAAAGUGGCUGUGGCUAGACUGAC [A6U C45A],0.66
13,GGCAGAGCUCUACACAGGGUGGCAAAGUGGCUGUGGCUAGACUGCC [A11U C18G],0.04
14,GGCAGAGCGCAACACAGCGUGGCAAAGAGGCUGUGGCUAGACUGCC [U9G U28A],0.11
15,GGCAGAGCUCAACACAGCGUGGCGAACUGGCUGUGGCUAGACUGCC [A24G G27C],0.9
16,GGCAGAGCUCAUCACAGCGUGGCAAAGUGGCUGUGGCUAGCCUGCC [A12U A41C],0.04
17,GGCAGAGCUCAACACAGCGUGGCAGAGUGGCUGUGGCCAGACUGCC [A25G U38C],0.14
18,GGCAGAGCUCAACACGGCGUGGCAAAGUGGCUAUGGCUAGACUGCC [A16G G33A],0.03
